In assay [1] the target is Recombinant Human DLL4 (R&D Systems Cat#1506-D4/CF) (human) (UniProt Q9NR61). The assay is described as follows: ECL (MSD) binding assay, immobilised DLL4.
Assay [2] deals with Recombinant Human DLL4 (delta-like protein 4) (human) (UniProt Q9NR61). Briefly: ELISA, DLL4 coated on plate, Fab at 25 nM (2-fold dilution series), absorbance at 450 nm. Background: ELISA stands for enzyme-linked immunosorbent assay.
For assay [3] the target is unchanged. Briefly: ELISA, DLL4 coated on plate, Fab at 100 nM (2-fold dilution series), absorbance at 450 nm.
Assay [4] has the same target. The assay is described as follows: ELISA, DLL4 coated on plate, Fab at 50 nM (2-fold dilution series), absorbance at 450 nm.
Assay [5] has the same target. The assay is described as follows: ELISA, DLL4 coated on plate, Fab at 12.5 nM (2-fold dilution series), absorbance at 450 nm.
The target of assay [6] is human Delta-like ligand 4 (DLL4), full-length, expressed on CHO cells (human) (UniProt Q9NR61). Briefly: cell-based or functional assay.

Data on eight molecules can be found in patent US20120316071A1.

Residue numbers refer to the chain shown, from its start. Names and notes keep the numbering of the source.

B1: Fab VH5-51_IGHD5-18*01>3_IGHJ4*01 G100K/G104T S28R & V3-4_IGLJ1*01 M94R/S96M (L:RM) (Fab, V domains shown)
VH: EVQLVQSGAEVKKPGESLKISCKGSGYRFTSYWIGWVRQMPGKGLEWMGIIYPGDSDTRYSPSFQGQVTISADKSISTAYLQWSSLKASDTAMYYCARRKYSYTYDYFDYWGQGTLVTVSS
VL: QTVVTQEPSFSVSPGGTVTLTCGLSSGSVSTSYYPSWYQQTPGQAPRTLIYSTNTRSSGVPDRFSGSILGNKAALTITGAQADDESDYYCVLYRGMGISYVFGTGTKVTVL
As for B1, the ECL signal in assay [1] is 530.

B2: Fab VH5-51_IGHD5-18*01>3_IGHJ4*01 G100K/G104T G24T/S28R/G35V Y105N & V3-4_IGLJ1*01 (wildtype) (Fab, V domains shown)
VH: B1 VH with G24T, G35V, Y105N
VL: B1 VL with R94M, M96S
Take B2: the ELISA signal in assay [2] came out at 0.19; in assay [3], 0.25; in assay [4] it was 0.18; in assay [5], 0.21.

B3: Fab VH5-51_IGHD5-18*01>3_IGHJ4*01 G100K/G104T G24L/S28R/G35V Y105H & V3-4_IGLJ1*01 (wildtype) (Fab, V domains shown)
VH: B1 VH with G24T, G35V, Y105H
VL: B1 VL with R94M, M96S
Regarding B3, the ELISA signal in assay [2] stood at 0.19; in assay [3] it was 0.23; in assay [4], 0.2; in assay [5], 0.21.

B4: Fab VH5-51_IGHD5-18*01>3_IGHJ4*01 G100K/G104T G24A/S28R/G35V Y107F & V3-4_IGLJ1*01 (wildtype) (Fab, V domains shown)
VH: B1 VH with G24T, G35V, Y107F
VL: B1 VL with R94M, M96S
In the case of B4, the ELISA signal in assay [2] worked out at 0.2; in assay [3] it was 0.28; in assay [4] it was 0.24; in assay [5], 0.21.

B5: Fab VH5-51_IGHD5-18*01>3_IGHJ4*01 G100K/G104T G24L/S28R/G35V D109Q & V3-4_IGLJ1*01 (wildtype) (Fab, V domains shown)
VH: B1 VH with G24T, G35V, D109Q
VL: B1 VL with R94M, M96S
Regarding B5, the ELISA signal in assay [2] was determined as 0.22; in assay [3], 0.3; in assay [4] it was 0.25; in assay [5], 0.24.

B6: Fab VH5-51_IGHD5-18*01>3_IGHJ4*01 G100K/G104T G24A/S28R/G35V & V3-4_IGLJ1*01 M94R/S96M (L:RM) (Fab, V domains shown)
VH: B1 VH with G24A, G35V
VL: B1 VL
Consider B6, for which the ECL signal in assay [1] stood at 1200.

B7: Fab VH5-51_IGHD5-18*01>3_IGHJ4*01 G100K/G104T G24L/S28R/G35V & V3-4_IGLJ1*01 M94R/S96M (L:RM) (Fab, V domains shown)
VH: B1 VH with G24L, G35V
VL: B1 VL
As to B7, the ECL signal in assay [1] was determined as 889.

B8: Fab VH6-1_IGHD6-13*01_IGHJ4*01 and V2-17_IGLJ2*01 (Fab, V domains shown)
VH: QVQLQQSGPGLVKPSQTLSLTCAISGDSVSSNSAAWNWIRQSPSRGLEWLGRTYYRSKWYNDYAVSVKSRITINPDTSKNQFSLQLNSVTPEDTAVYYCAREGYSSSWYDYFDYWGQGTLVTVSS
VL: SYELTQPPSVSVSPGQTARITCSGDALPKQYAYWYQQKPGQAPVLVIYKDSERPSGIPERFSGSSSGTTVTLTISGVQAEDEADYYCQSADSSGTYPVVFGGGTKLTVL
Turning to B8, in assay [6], the Notch1 luciferase reporter luminescence, T98G reporter cells + CHO-DLL4, 0.8 nM Fab, replicate 1 stood at 4480; the Notch1 luciferase reporter luminescence, T98G reporter cells + CHO-DLL4, 0.8 nM Fab, replicate 2 came to 4540; the Notch1 luciferase reporter luminescence, T98G reporter cells + CHO-DLL4, 0.8 nM Fab, replicate 3 was determined as 3910; the Notch1 luciferase reporter luminescence, T98G reporter cells + CHO-DLL4, 0.8 nM Fab, replicate 4 worked out at 4220. In assay [6], the Notch1 luciferase reporter luminescence, T98G reporter cells + CHO-DLL4, 4 nM Fab, replicate 1 turned out to be 4810; the Notch1 luciferase reporter luminescence, T98G reporter cells + CHO-DLL4, 4 nM Fab, replicate 2 was 4920; the Notch1 luciferase reporter luminescence, T98G reporter cells + CHO-DLL4, 4 nM Fab, replicate 3 came to 4190; the Notch1 luciferase reporter luminescence, T98G reporter cells + CHO-DLL4, 4 nM Fab, replicate 4 amounted to 4520. Further, in assay [6], the Notch1 luciferase reporter luminescence, T98G reporter cells + CHO-DLL4, 20 nM Fab, replicate 1 came to 5400; the Notch1 luciferase reporter luminescence, T98G reporter cells + CHO-DLL4, 20 nM Fab, replicate 2 came to 4990; the Notch1 luciferase reporter luminescence, T98G reporter cells + CHO-DLL4, 20 nM Fab, replicate 3 was 4320; the Notch1 luciferase reporter luminescence, T98G reporter cells + CHO-DLL4, 20 nM Fab, replicate 4 came out at 4550. For the same molecule, in assay [6], the Notch1 luciferase reporter luminescence, T98G reporter cells + CHO-DLL4, 100 nM Fab, replicate 1 is 4820; the Notch1 luciferase reporter luminescence, T98G reporter cells + CHO-DLL4, 100 nM Fab, replicate 2 stood at 4810; the Notch1 luciferase reporter luminescence, T98G reporter cells + CHO-DLL4, 100 nM Fab, replicate 3 is 4030; the Notch1 luciferase reporter luminescence, T98G reporter cells + CHO-DLL4, 100 nM Fab, replicate 4 worked out at 4470.
